The source of these data is patent US20230382979A1 (ADAPTIVE BIOTECHNOLOGIES, published 2023).

Assay [1] deals with T1, S1 subunit of the SARS-CoV-2 spike protein, WA01/2020 strain (SARS-CoV-2, WA01/2020 strain, UniProt P0DTC2 16-685).
For assay [2], the target named is T1, S1 subunit of the SARS-CoV-2 spike …. The experiment in a line: dose-response ELISA on coated antigen.
Assay [3] concerns the target T2, SARS-CoV-2 spike (S) protein trimer, WA01/2020 strain (SARS-CoV-2, WA01/2020 strain, UniProt P0DTC2 16-1213). Briefly: dose-response ELISA on coated antigen. (In general: An ELISA detects its analyte on a solid surface through an enzyme-linked reagent.)
Assay [4] concerns the target T2, SARS-CoV-2 spike (S) protein trimer, ….
Assay [5] addresses T1, S1 subunit of the SARS-CoV-2 spike …. The experiment in a line: ELISA, antibody at 0.1 ug/mL.
For assay [6], the target named is T3, S2 subunit of the SARS-CoV-2 spike protein, WA01/2020 strain (SARS-CoV-2, WA01/2020 strain, UniProt P0DTC2 686-1213). The experiment in a line: ELISA, antibody at 0.1 ug/mL.
Assay [7] concerns the target T4, SARS-CoV-2 nucleocapsid (N) protein (SARS-CoV-2, UniProt P0DTC9 1-419). Briefly: ELISA, antibody at 0.1 ug/mL.
Assay [8] addresses SARS-CoV (2003) spike protein borne on lentiviral pseudovirus (SARS-CoV (2003), UniProt P59594 14-1255). Briefly: cell-based or functional assay.
The target of assay [9] is T3, S2 subunit of the SARS-CoV-2 spike …. Briefly: ELISA on S2 (S2 Binding EC50).
The target is the same in assay [10]. Briefly: dose-response ELISA; antigen taken from the column 'Structural data'.
Assay [11] concerns the target SARS-CoV-2 spike protein, WA1/2020, borne on lentiviral pseudovirus (SARS-CoV-2, WA01/2020 strain, UniProt P0DTC2 14-1273). Briefly: cell-based or functional assay.
The target in assay [12] is T1, S1 subunit of the SARS-CoV-2 spike …. The experiment in a line: ELISA screening, antibody concentration not given.
Assay [13] addresses T4, SARS-CoV-2 nucleocapsid (N) protein. The experiment in a line: ELISA screening, antibody concentration not given.

B1: antibody 2646 (antibody, V domains shown)
VH: QVQLVQSGAEVKKPGASVKVSCKVSGYTLTELSIHWVRQAPGKGLEWMGGFDPEDAETIYAQKFQGRVTMTEDTSTDTAYMELSSLRSEDTAVYYCATATAVAGTVFNYQYHYGLDFWGQGTTVTVSS
VL: not shown
With B1, binding in assay [1] was characterised by a dissociation constant (Kd) of 0.00296 nM. The half-maximal effective concentration (EC50) (usually the concentration at which the effect is half-maximal) in assay [2] was determined as 0.033 nM; in [3], 0.024 nM.

B2: antibody 2598 (antibody, V domains shown)
VH: QVQLQESGPGLVKPSGTLSLTCVVSGGSISSSNWWSWVRQPPGKGLEWIGETFHSGSFNYNPSLKSRVTISVDKSKNQFSLKLSSVTAADTAIYYCATTRVGYEGHFYYYGMDVWGQGTTVTVSS
VL: DIQMTQSPSSVSASVGDRVTITCRASQGISSWLAWYQQKPGKAPKLLIYAASSLQSGVPSRFSGSGSGTDFTLTISSLQPEDFATYYCQQANRFPWTFGQGTKVEIK
As for B2, the Kd (usually the constant that tells how readily two partners part at equilibrium) in assay [1] was determined as 0.00823 nM. The results for the EC50 in assay [2] and in assay [3] were 0.084 nM and 0.043 nM, respectively.

B3: antibody 2854 (antibody, V domains shown)
VH: QVQLVQSGAEVKKPGSSVKVSCKASGGTFSSYAISWVRQAPGQGLEWMGGIIPIFHTANYAQKFQGRVTITADESTSTTYVELSSLRSEDTAMYYCATLPITIFGEEYSFDNWGQGTLVTVSS
VL: DVVMTQSPLSLPVTLGQPASISCRSSQSLVHSDGNTYLSWFQQRPGQSPRRLIYKVSDRDSGVPDRFSGSGSGTDFTLKISRVEAEDVGIYYCMQGTHWPPLTFGGGTKVEIK
Molecule B3 displayed a Kd in assay [4] of 0.112 nM. Besides, the binding result in assay [5], in assay [6] and in assay [7] was “no binding (tested: 0.1 ug/mL)” each time. Moreover, the EC50 in assay [3] was 0.152 nM.

B4: antibody 1823 (antibody, V domains shown)
VH: EVQLVESGGGLVKPGGSLRLSCVASGFSFGLYTMNWVRQAPGKGLEWVSYISSSTSYKYYADSVKGRVSVSRDNAKNSLYLQLNGLRVEDTAVYYCARDGYCPNGICTYYGMDVWGQGTTVTVSA
VL: EIVMTQSPATLSVSPGERATLSCRASQSVSSNLAWYQQKPGQAPRLLIYGASTRATGIPARFSGSGSGTEFTLTITGLQSEDFAVYYCQQYDKWPPAYSFGQGTKVEIK
On to B4, for which the “Pseudo Neut, SARS-CoV 2003 IC50” value in [8] stood at 210 nM. Moreover, the EC50 in [9] and in assay [10] was 0.614 nM throughout.

B5: antibody 1871 (antibody, V domains shown)
VH: EVQLVESGGGLVKPGGSLRLSCVASGFSFSIYSMNWVRQAPGKGLEWVSYISSSSSYKYYADSVKGRFSVSRDNAKNSLYLQLNGLRAEDTAVYYCARDGYCPKGVCTYYGMDVWGQGTTVTVSA
VL: EIVMTQSPATLSVSPGERVTLSCRASQSVRSRLAWFQQKPGQAPRLLIYDASIRATGIPARFSGSGSGTEFTLIISSLQSEDFAVYYCQQYDNWPPAYTFGQGTKLEIK
As for B5, the “Pseudo Neut, WA1/2020 IC50 (pM)” value in assay [11] came to 440 pM. In [8], the “Pseudo Neut, SARS-CoV 2003 IC50” value stood at 30 nM. Further, the EC50 in assay [9] and in assay [10] was 0.103 nM throughout. The binding result in assay [12] and in assay [13] was “no binding (tested: not printed)” throughout.

B6: antibody 2866 (antibody, V domains shown)
VH: QVQLVQSGAEVKKPGSSVKVSCKASGGTFSSYSISWVRQAPGQGLEWMGGLAPIFHTPNYAQKFQGRVTITADESTSTAYMELSSLRSEDTAVYYCARVAGAGWGVYGAFDYWGQGTLVTVSS
VL: not shown
On to B6, for which the affinity in assay [4], expressed as Kd, was 0.154 nM. Also, the binding result in assay [5], in assay [6] and in [7] was “no binding (tested: 0.1 ug/mL)” each time. Besides, the EC50 in assay [3] is 0.182 nM.

B7: antibody 2788 (antibody, V domains shown)
VH: QVQLVQSGAEVKKPGASVKVSCKVSGYTLIELSMHWVRQAPGKGLEWMGGFDPEGAETIYAQKFQGRVTMTEDTSTDTAYMELSSLRSDDTAVYYCATGPAVFAANWFDPWGQGTLVTVSS
VL: QSALTQPPSASGSPGQSVTISCTGTSSDIGNYNNVSWYQQHPGKAPKLMIYDVIKRPSGVPDRFSGSKSGNTASLTVSGLQAEDEADYYCSSYAGKSYVFGTGTKVTVL
For the molecule B7, the binding result in assay [6] and in assay [7] was “no binding (tested: 0.1 ug/mL)” each time. Further, the half-maximal effective concentration (EC50) was found to be 0.058 nM in assay [2] and 0.021 nM in assay [3].

B8: antibody 2019 (antibody, V domains shown)
VH: QVQLVESGGGVVQPGGSLSLSCAASGLSFSSYGMHWVRQAPGKGLEWVAFIRYDVSNKYYADSVKGRFTISRDNSKNTLYLQMNSLRVEDTAVYYCATWAPLDDGMDVWGQGTTVTVSS
VL: SYELTQPPSVSVSPGQTARITCSGDALPKQYAYWYQQKPGQAPVLVIYKDTERPSGIPERFSGSSSGTTVTLTISGVQAEDEADYYCQSGDSSGTFYVVFGGGTKLTVL
Regarding B8, the Kd in [4] is 0.057 nM. Further, the binding result in [5], in assay [6] and in [7] was “no binding (tested: 0.1 ug/mL)” in each case. In assay [3], a half-maximal response (EC50) required 0.024 nM.

B9: antibody 1238 (antibody, V domains shown)
VH: QVQLVQSGSELKKPGASVKVSCKASGYTFTNYGMNWVRQAPGQGLEWMGWINTNTGNPTNAQGFTGRFVFSLDTSVSTAYLQINSLKGEDTAVYYCARVADTGEMDVWGQGTTVTVSS
VL: SYELTQPPSVSVSPGQTARITCSGDALPKQYAYWYQQKPGQAPVLVIYKDSERPSGIPERFSGSSSGTTVTLTISGVQAEDEADYYCQSADSSGSYNWVFGGGTKLTIL
Turning to B9, the Kd in assay [1] is 0.027 nM. The binding result in [6] and in assay [7] was “no binding (tested: 0.1 ug/mL)” in each case. Further, the EC50 turned out to be 0.028 nM in assay [2] and 0.069 nM in assay [3].

B10: antibody 1814 (antibody, V domains shown)
VH: QVQLQESGPGLVKPSETLSLTCSVSGGSINYYYWSWIRQTPGQGLEWIGFIYSSGTTNYNPSLKSRVTMSKDTAKKQFSLKLTSVTAADSAVYYCARHSRSCTNGVCQTYYYYALDVWGHGTTVTVSS
VL: QSVLTQPPSVSGAPGQRVTISCTGSGSNIGSGYDVHWYQQLPGRAPKLLIYRNRNRPSGVPDRFSGSKSGTSASLAIAGLQSEDEGDYFCQSYDGRLGESAVFGGGTRLTVL
With B10, the “Pseudo Neut, WA1/2020 IC50 (pM)” value in assay [11] amounted to 171 pM. Further, the “Pseudo Neut, SARS-CoV 2003 IC50” value in assay [8] worked out at 6.5 nM. Also, the EC50 in assay [9] and in assay [10] was 0.077 nM each time. In addition, the binding result in assay [12] and in assay [13] was “no binding (tested: not printed)” each time.

B11: antibody 1815 (antibody, V domains shown)
VH: QVQLQESGPGLVKPSETLSLTCSVSGGSINYYYWSWIRKSPGKGLEWIGFIYSSGTTNYNPSLKSRVSMSIGTSKRQFSLKLSSVTAADSAVYYCARHSRSCTNGVCQTYYYYALDVWGHGTTVTVSS
VL: QSVLTQPPSVSGAPGQRVTISCTGSSSNIGAGYDVHWYQQLPGTAPKLLIYANTHRPSGVPDRFSASKSGTSASLAIAGLQAEDEGDYYCQSYDGSLSESAVFGGGTRLTVL
Consider B11, for which, in assay [11], the “Pseudo Neut, WA1/2020 IC50 (pM)” value came to 10.2 pM. For the same molecule, in assay [8], the “Pseudo Neut, SARS-CoV 2003 IC50” value was found to be 26 nM. The 50% effective concentration (EC50) in assay [9] and in assay [10] was 0.127 nM in each case. Also, the binding result in assay [12] and in assay [13] was “no binding (tested: not printed)” throughout.

B12: antibody 1671 (antibody, V domains shown)
VH: EVQLVESGGGLVKPGGSLRLSCAASGFTFSTYNMNWVRQAPGKGLEWVSSISSNSNYIYYADSMKGRFTISRDNAKNSLYLQMNSLRAEDTAVYYCARDMDPLPYFDWLLYAFDVWGQGTMVTVSS
VL: EIVLTQSPGTLSLSPGERATLSCRASQSVSGSYLAWYQQKPGQAPRLLIYGASSRATGIPDRFSGSGSGTDFTLTISRLEPEDFAVYYCQQYGSPIFTFGPGTKVDIK
Molecule B12 registered an equilibrium dissociation constant (Kd) in assay [1] of 0.0506 nM.
